Target: the molecule itself
Experiment: cryo-EM structure

B1: mouse DUOX1 (enzyme, mouse (Mus musculus), UniProt A2AQ92 20-1551, looked up)
chain: GAQNSISWEVQRFDGWYNNLMEHRWGSKGSRLQRLVPASYADGVYQPLKEPYLPNPRHLSNRVMRGSAGQPSLRNRTVLGVFFGYHVLSDLVSVETPGCPAEFLNIYIPHGDPVFDPDKRGNVVLPFQRSRWDRNTGQSPSNPRDQSNQVTGWLDGSAIYGSSHSWSDTLRSFSGGQLASGPDPAFPSDSQSSLLMWMAPDPSTGQGGPRGVYAFGAQRGNREPFLQALGLLWFRYHNLCARKLAQEHPHWGDEELFQHARKRVIATYQNIAMYEWLPSFLKQTPPEYPGYRPFLDPSISPEFVVASEQFLSTMVPSGVYMRNASCHFQGIPSHNSSVSGALRVCNSYWSREHPKLQRAEDVDALLLGMASQIAEREDHVVVEDMQDFWPGPLKFSRTDYLASCLQRGRDLGLPSYTKAREALGLSPISHWQDINPALSRSNGTVLEATAALYNQDLSRLELLPGGLLESHGDPGPLFSTIVLDQFVRLRDGDRYWFENTRNGLFSKEEIAEIRNTSLRDILVAVTNVDPSALQPNVFFWLAGDPCPQPSQLSAKGLPACAPLFIRDYFEGSGFGFGLTIGTLCCFPLVSLLSAWIVARLRKRNFKRLQRQDRQSIMSEKLVGGVEALEWQGRNEPCRPVLVHLQPGQIRVVDGRLTVLRTIQLRPPQQVNLILSSNRGRRTLLLKIPKEYDLVLLFNMEEERQALVENVRGALKENGLSFQEWELREQELMRAAVTRQQRGHLLETFFRHLFSQVLDINQADAGTLPLDSSTKVREALTCELSRAEFADSLGLKPQDMFVESMFSLADKDGNGYLSFREFLDILVVFMKGSPEEKSRLMFRMYDFDGNGLISKDEFIRMLRSFIEISNNCLSKAQLAEVVESMFRESGFQDKEELTWEDFHFMLRDHDSDLRFTQLCVKGVEVPEVIKNLCRRASYISQEKICPSPRMSAHCARNNMKTASSPQRLQCPMDTDPPQEIRRRFGKKVTSFQPLLFTEAHREKFQRSRRHQTVQQFKRFIENYRRHIGCVAVFYTITGALFLERAYYYAFAAHHSGITDTTRVGIILSRGTAASISFMFSYILLTMCRNLITFLRETFLNRYIPFDAAVDFHRLIASTAIILTVLHSAGHVVNVYLFSISPLSVLSCLFPGLFHDDGSEFPQKYYWWFFQTVPGLTGVLLLLALAIMYVFASHHFRRRSFRGFWLTHHLYIFLYILLIIHGSFALIQMPRFHIFFLVPAIIYVGDKLVSLSRKKVEISVVKAELLPSGVTHLRFQRPQGFEYKSGQWVRIACLALGTTEYHPFTLTSAPHEDTLSLHIRAAGPWTTRLREIYSPPTGDTCARYPKLYLDGPFGEGHQEWHKFEVSVLVGGGIGVTPFASILKDLVFKSSVSCQVFCKKIYFIWVTRTQRQFEWLADIIREVEENDRQDLVSVHIYITQLAEKFDLRTTMLYICERHFQKVLNRSLFTGLRSITHFGRPPFEPFFNSLQEVHPQVRKIGVFSCGPPGMTKNVEKACQLINRQDRTHFSHHYENF
modifications: sugar densities at glycosylation sites N94, N324 and N534
stoichiometry N: 2

Reference: publication PMC7644671 (Nature structural & molecular biology, 2020)
